From the RNAGym collection of RNA variant scans (doi:10.1073/pnas.2313332121)
This sample holds only a part of the variants without activity.

B1: TPR 5TU (parent)
chain: GGAUCUUCUCGAUCUAACAAAAAAGACAAAUCUGCCACAAAGCUUGAGAGCAUCUUCGGAUGCAGAGGCGGCAGCCUUCGGUGGCGCGAUAGCGCCAACGUUCUCAACUAUGACACGCAAAACGCGUGCUCCGUUGAAUGGAGUUUAUCAUG

Variants of: B1
Test: polymerase ribozyme fitness, log enrichment relative to wild type (log ratio); higher = more active; in vitro selection for triplet polymerase activity
How it was run: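 Fitness compares each genotype's enrichment to that of the wild type on a logarithmic scale, averaging replicates with inverse-variance weights. The logarithm is base 2. Enrichment came from Illumina sequencing of input and output libraries after one triplicate round of in vitro selection, which included frozen incubation at −7 °C, of PCR-built, transcribed mutant libraries of each subunit of a heterodimeric triplet polymerase ribozyme. Only genotypes with ≥10 input reads and ≥1 read per output were kept.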

Q: For A17G C54G C93G A106G G126U G141U U144C, which “polymerase ribozyme fitness (log ratio)” value is on record?
A: ≤ -4.2

Q: Which “polymerase ribozyme fitness (log ratio)” value does the source give for A19C A52C C85U C96U C108G G140C here?
A: ≤ -4.2

Q: Which “polymerase ribozyme fitness (log ratio)” value does the source give for C18G C72G G84C here?
A: ≤ -4.2

Q: With A17U A60C G88C as the variant, how does the “polymerase ribozyme fitness (log ratio)” value read?
A: ≤ -4.2

Q: For A17U G86A, which “polymerase ribozyme fitness (log ratio)” value is on record?
A: -0.694

Q: Which “polymerase ribozyme fitness (log ratio)” value does the source give for A17U C51U C95U C103A here?
A: -1.47

Q: For C18U G42C, which “polymerase ribozyme fitness (log ratio)” value is on record?
A: ≤ -4.2

Q: With A17G A21U A49C G59C G74U C85G as the variant, how does the “polymerase ribozyme fitness (log ratio)” value read?
A: ≤ -4.2

Q: For A17U G42C G59A C69U C96G G141A U146C, which “polymerase ribozyme fitness (log ratio)” value is on record?
A: ≤ -4.2

Q: With A17G A39G C57A C96A as the variant, how does the “polymerase ribozyme fitness (log ratio)” value read?
A: -2

Q: For C18U A52C G86A C99U U146G, which “polymerase ribozyme fitness (log ratio)” value is on record?
A: -4.02

Q: For A19C U55G U90G, which “polymerase ribozyme fitness (log ratio)” value is on record?
A: ≤ -4.2

Q: With A19C A22U C57G C87U G94U C103G U104G C129A as the variant, how does the “polymerase ribozyme fitness (log ratio)” value read?
A: ≤ -4.2

Q: For C18U A19G A21C C35U U55A G92C A147U, which “polymerase ribozyme fitness (log ratio)” value is on record?
A: -2.94

Q: Which “polymerase ribozyme fitness (log ratio)” value does the source give for C18U C51A U53A C57U G59C C95A here?
A: -4.09

Q: With A17C U33C G42U U44A U56G as the variant, how does the “polymerase ribozyme fitness (log ratio)” value read?
A: ≤ -4.2

Q: Which “polymerase ribozyme fitness (log ratio)” value does the source give for A17G C27U A41U here?
A: -1.51

Q: For C18U C32U G83U, which “polymerase ribozyme fitness (log ratio)” value is on record?
A: -3.14

Q: With C18G C57U G59A G80A G86U as the variant, how does the “polymerase ribozyme fitness (log ratio)” value read?
A: -2.45

Q: With A17G A20U A52C A89G C95A A106U U134A as the variant, how does the “polymerase ribozyme fitness (log ratio)” value read?
A: ≤ -4.2

Q: With A17U G34U C43U C63A C87A A106C C108A as the variant, how does the “polymerase ribozyme fitness (log ratio)” value read?
A: ≤ -4.2

Q: With A17G A19C U55G C87U C93U C108U G141U as the variant, how does the “polymerase ribozyme fitness (log ratio)” value read?
A: ≤ -4.2

Q: With A19G A26U G84A A147G as the variant, how does the “polymerase ribozyme fitness (log ratio)” value read?
A: -3.45

Q: For A19C U55G C93U G136U, which “polymerase ribozyme fitness (log ratio)” value is on record?
A: -3.02

Q: With C18U C35A A39U G50U U55G C108U as the variant, how does the “polymerase ribozyme fitness (log ratio)” value read?
A: ≤ -4.2

Q: With A19G C35U C87U C95A as the variant, how does the “polymerase ribozyme fitness (log ratio)” value read?
A: -2.49

Q: Which “polymerase ribozyme fitness (log ratio)” value does the source give for C18U A60G G62A G86A C149U here?
A: -3.44

Q: With A19G C27U G59U G94C as the variant, how does the “polymerase ribozyme fitness (log ratio)” value read?
A: -2.46

Q: Which “polymerase ribozyme fitness (log ratio)” value does the source give for A19G C35U C51U C96U here?
A: -1.35

Q: With C18G G141C as the variant, how does the “polymerase ribozyme fitness (log ratio)” value read?
A: -1.51

Q: Which “polymerase ribozyme fitness (log ratio)” value does the source give for A17U A23C A37C A41C C96A G124U here?
A: ≤ -4.2

Q: Which “polymerase ribozyme fitness (log ratio)” value does the source give for A19C U61G C93A here?
A: -4.05

Q: With A17G G62U C87U A122G U127G C132G as the variant, how does the “polymerase ribozyme fitness (log ratio)” value read?
A: ≤ -4.2

Q: Which “polymerase ribozyme fitness (log ratio)” value does the source give for A17U A20G C63G U134G here?
A: -3.43

Q: With A17U U31A C57U C76U C96G C103G U146C as the variant, how does the “polymerase ribozyme fitness (log ratio)” value read?
A: ≤ -4.2

Q: Which “polymerase ribozyme fitness (log ratio)” value does the source give for C18U U78A G81U C87G U144A here?
A: ≤ -4.2

Q: For C18U G58C A73G C132A, which “polymerase ribozyme fitness (log ratio)” value is on record?
A: -3.75

Q: Which “polymerase ribozyme fitness (log ratio)” value does the source give for A17G A60G G84U C118A U146G here?
A: -2.3

Q: Which “polymerase ribozyme fitness (log ratio)” value does the source give for A19G A26U U45A A52U U61A G70C C85G A115U G141U here?
A: ≤ -4.2

Q: Which “polymerase ribozyme fitness (log ratio)” value does the source give for A19C G59A C76G C87U here?
A: ≤ -4.2

Q: With A17U A24U U56G as the variant, how does the “polymerase ribozyme fitness (log ratio)” value read?
A: -0.773

Q: With A17U G50A G67U G74A U134G as the variant, how does the “polymerase ribozyme fitness (log ratio)” value read?
A: ≤ -4.2

Q: With A17U C76A G83A C87G G124A A150C as the variant, how does the “polymerase ribozyme fitness (log ratio)” value read?
A: ≤ -4.2

Q: Which “polymerase ribozyme fitness (log ratio)” value does the source give for A17G G86A C93U A97U here?
A: 0.0217

Q: Which “polymerase ribozyme fitness (log ratio)” value does the source give for A19G U44G C63U C76G C103A C125A here?
A: ≤ -4.2

Q: Which “polymerase ribozyme fitness (log ratio)” value does the source give for A19C U56A C85G U148A here?
A: -3.88

Q: Which “polymerase ribozyme fitness (log ratio)” value does the source give for A17U C38U C95U A115C A142U here?
A: -3.52

Q: With C18G U82C C85A A142C as the variant, how does the “polymerase ribozyme fitness (log ratio)” value read?
A: -2.92

Q: With A19G A49G A52C U55A as the variant, how does the “polymerase ribozyme fitness (log ratio)” value read?
A: -4.18

Q: For A17U A23U A28G U55A G84A, which “polymerase ribozyme fitness (log ratio)” value is on record?
A: ≤ -4.2

Q: Which “polymerase ribozyme fitness (log ratio)” value does the source give for A19G C54A here?
A: -1.26

Q: With A17U C32U A52C G84C U90C U109G as the variant, how does the “polymerase ribozyme fitness (log ratio)” value read?
A: ≤ -4.2

Q: With A17U A22U A26G C36G G67C C95A as the variant, how does the “polymerase ribozyme fitness (log ratio)” value read?
A: ≤ -4.2

Q: Which “polymerase ribozyme fitness (log ratio)” value does the source give for A17C U31G C76A C95G here?
A: ≤ -4.2

Q: With C18U U144C C149U as the variant, how does the “polymerase ribozyme fitness (log ratio)” value read?
A: -4.09

Q: For A17U A22U C35U C51U G83U, which “polymerase ribozyme fitness (log ratio)” value is on record?
A: -1.87

Q: Which “polymerase ribozyme fitness (log ratio)” value does the source give for C18G C123G here?
A: -0.253

Q: With A17U G59A C87U C93A G143U U146G as the variant, how does the “polymerase ribozyme fitness (log ratio)” value read?
A: ≤ -4.2

Q: Which “polymerase ribozyme fitness (log ratio)” value does the source give for A17U A37C G46A C85G C114U here?
A: ≤ -4.2

Q: For A17G U31A, which “polymerase ribozyme fitness (log ratio)” value is on record?
A: 0.512

Q: Which “polymerase ribozyme fitness (log ratio)” value does the source give for C18G C57U G59A G80A G86U C108G C116U U145A C149G G152U here?
A: ≤ -4.2

Q: For A17G A41G C54U, which “polymerase ribozyme fitness (log ratio)” value is on record?
A: 0.908

Q: Which “polymerase ribozyme fitness (log ratio)” value does the source give for A19G A91C here?
A: -4.15

Q: For A19C C35A, which “polymerase ribozyme fitness (log ratio)” value is on record?
A: -3.08

Q: Which “polymerase ribozyme fitness (log ratio)” value does the source give for C18G A21U here?
A: -0.776

Q: Which “polymerase ribozyme fitness (log ratio)” value does the source give for A17G G42U C51U C96U C108U here?
A: ≤ -4.2

Q: For C18U A26U U31A U53A G94U, which “polymerase ribozyme fitness (log ratio)” value is on record?
A: ≤ -4.2

Q: Which “polymerase ribozyme fitness (log ratio)” value does the source give for A17C G25C A30G U45A A49C G124U here?
A: -4.16

Q: With C18G A22G C27U A41U A49C C57A C93G G140C as the variant, how does the “polymerase ribozyme fitness (log ratio)” value read?
A: -4.12

Q: With A19G C27U G50A as the variant, how does the “polymerase ribozyme fitness (log ratio)” value read?
A: -4.19

Q: With C18U A22C A40U A89C as the variant, how does the “polymerase ribozyme fitness (log ratio)” value read?
A: -0.248

Q: With A17G C87U as the variant, how does the “polymerase ribozyme fitness (log ratio)” value read?
A: -0.0232

Q: For A19G U77A C96U A113G, which “polymerase ribozyme fitness (log ratio)” value is on record?
A: ≤ -4.2

Q: With C18G A21G A23C A40U G70A C79G C87G G117C as the variant, how does the “polymerase ribozyme fitness (log ratio)” value read?
A: ≤ -4.2

Q: Which “polymerase ribozyme fitness (log ratio)” value does the source give for A19C G128C here?
A: -3

Q: For C18G U61G U77G U82C C103G, which “polymerase ribozyme fitness (log ratio)” value is on record?
A: ≤ -4.2

Q: For A17G C76A A119U, which “polymerase ribozyme fitness (log ratio)” value is on record?
A: -0.0837

Q: With A17C U56A as the variant, how does the “polymerase ribozyme fitness (log ratio)” value read?
A: 0.36

Q: With C18G G84A as the variant, how does the “polymerase ribozyme fitness (log ratio)” value read?
A: -1.41

Q: For C18U A89C A91G A122U C125A U134C, which “polymerase ribozyme fitness (log ratio)” value is on record?
A: ≤ -4.2

Q: With C18G U53A U61A A137C as the variant, how does the “polymerase ribozyme fitness (log ratio)” value read?
A: ≤ -4.2

Q: For C18U G42A C85U C103U, which “polymerase ribozyme fitness (log ratio)” value is on record?
A: -4.11

Q: Which “polymerase ribozyme fitness (log ratio)” value does the source give for A17G A20U G84A A97U A115C here?
A: -3.45

Q: Which “polymerase ribozyme fitness (log ratio)” value does the source give for A17U G126A here?
A: 0.557
